We go through four molecules from PMC10281602.

Data set [1] deals with T1, PbrARF13 (Pyrus bretschneideri? (pear …, UniProt UPI00202FA75D 49-757)).
T1 sequence: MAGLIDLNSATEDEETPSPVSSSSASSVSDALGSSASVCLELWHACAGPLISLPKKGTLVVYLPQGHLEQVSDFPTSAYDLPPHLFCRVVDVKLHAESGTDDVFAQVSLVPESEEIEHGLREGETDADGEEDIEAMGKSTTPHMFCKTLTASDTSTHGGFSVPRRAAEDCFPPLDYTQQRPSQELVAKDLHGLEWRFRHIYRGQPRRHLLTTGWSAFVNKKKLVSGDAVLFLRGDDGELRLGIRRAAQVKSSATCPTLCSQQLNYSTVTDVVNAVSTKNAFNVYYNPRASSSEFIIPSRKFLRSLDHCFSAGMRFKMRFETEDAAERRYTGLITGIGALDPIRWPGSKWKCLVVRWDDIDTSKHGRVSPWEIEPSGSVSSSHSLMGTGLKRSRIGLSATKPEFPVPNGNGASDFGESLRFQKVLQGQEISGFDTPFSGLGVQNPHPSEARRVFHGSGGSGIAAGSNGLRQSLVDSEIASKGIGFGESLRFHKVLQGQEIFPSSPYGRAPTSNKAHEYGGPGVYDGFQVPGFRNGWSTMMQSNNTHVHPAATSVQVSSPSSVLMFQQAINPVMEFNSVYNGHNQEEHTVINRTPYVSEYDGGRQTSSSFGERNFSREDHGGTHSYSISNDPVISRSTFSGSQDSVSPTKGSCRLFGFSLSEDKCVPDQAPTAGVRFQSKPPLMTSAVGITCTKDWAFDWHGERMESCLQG
The data set can be described thus: EMSA. Background: In EMSA bound probe runs differently from free probe, usually more slowly.

Data set [2] has as its target T1, PbrARF13. Put plainly: competition.
For another data set, the target named is T2, PbrNSC (Pyrus bretschneideri? (pear …, UniProt A0A5J6X514 1-400)).
T2 sequence: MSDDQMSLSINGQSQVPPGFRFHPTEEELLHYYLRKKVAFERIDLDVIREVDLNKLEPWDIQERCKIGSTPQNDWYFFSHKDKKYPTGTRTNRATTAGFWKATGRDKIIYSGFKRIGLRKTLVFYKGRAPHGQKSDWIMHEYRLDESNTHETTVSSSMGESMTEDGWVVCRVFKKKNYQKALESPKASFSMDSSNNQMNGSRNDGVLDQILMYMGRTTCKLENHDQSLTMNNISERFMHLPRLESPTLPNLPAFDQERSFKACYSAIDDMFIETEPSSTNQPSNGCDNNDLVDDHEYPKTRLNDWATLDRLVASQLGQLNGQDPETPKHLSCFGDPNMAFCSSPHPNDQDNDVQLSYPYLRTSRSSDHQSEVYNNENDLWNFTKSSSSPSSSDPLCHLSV
The data set can be described thus: EMSA.

B1: AuxRE-2 mutant probe (dsDNA)
DNA 1: ATCATCTCGAGAGATCTCTTGC
DNA 2: GCAAGAGATCTCTCGAGATGAT
For B1, the binding result with PbrARF13 [1] is reported as “no binding”.

B2: AuxRE-2 unlabelled competitor (dsDNA)
DNA 1: ATCATCTCTGTCTCTCTCTTGC
DNA 2: GCAAGAGAGAGACAGAGATGAT
In the case of B2, the binding result with PbrARF13 [2] is recorded as “binds”.

B3: SNBE probe (dsDNA)
DNA 1: ATACTTGAAACCTAAGTAA
DNA 2: TTACTTAGGTTTCAAGTAT
For B3, the binding result in the data set with PbrNSC is “binds”.

B4: AuxRE-2 probe (dsDNA)
DNA 1: ATCATCTCTGTCTCTCTCTTGC
DNA 2: GCAAGAGAGAGACAGAGATGAT
Consider B4, for which the binding result with PbrARF13 [1] is “binds”.
